From the NTF2 design screens of Basanta et al. (2020)

Assay: protease stability score; higher = more stable; yeast display proteolysis, trypsin and chymotrypsin;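 also: relative to predicted unfolded state with 0 unfolded-like and 1 meaning tenfold more protease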
Sequence “DKLEKWAEHMVHLIFRAFETGDWRMLSKYFDPDTRHHVGNFHLVGMEDFIKLARELSERLGMEIDRVHVRHFDTQGDKLTVEIIVHSRVGDKEETRETIILVSKYNGRWHLSSIEIK” has a protease stability score of 1.39.
Work on “SEEDEMSKRFLDDLLHNLRTGDFDRLKNELDPHAKLVVDGQELHGMELASKRDLEMRVNHLEIRHVEIQGEWIHLKGEMDGEVNGKRNIHEVHVLLFKINGRWYVREVWIR” yielded a protease stability score of 1.41.
Work on “DHLRELMERVLERYRRALETGNFEELRNLADPHYRVDIDGQELIGMDEYKRHLIKIKNLKIHHVEIKDVKVQGDKAHVDQEDDIEFDGRRMRLRLHYIWLKFNGRWLLHSMEVE” yielded a protease stability score of 1.85.
With “DEREEFIHIAIHLLIHVDRTGDEDTYRKMMDPTTKLEVNGVKYIGRQEVIKFLRHIRIDSQDIKRWELVGDKVDLDVHVDGDVNGRRVREDRQIHLWKVDGRWVLEKIEYK” the protease stability score was 0.955.
Work on “DDIHRIIKTALELWLRVLETGDERLIHELLDPDARFVINGKFYHGREVWEEERRQIDHIRMDTFHLKHIDLVNGRLRIEGHIVFTVHVNGRTTRREEDVHFILTKFNGKWEMQSLNIE” yielded a protease stability score of 1.15.
Work on “SELEESVRWAAEVFVKYTLTGNEHLLSRYFDPNVRVHFDGVDLHGREELSKLFLHIRFRRIHLRSEKEFEGHAELDQEHDGHYNGVRHNRTLRLHMIKINGQWITEVFILH” yielded a protease stability score of 1.34.
“SEDEEEFRRWLEEMVRALITGDEDRLKELFDPHAQVHVNGKERHGRDELVKAFRETLEDFGVKHMRVTSSSVQGDYVIIHIEMHVDGKPIQTDIRVIIVNGKVHKFEVQLH” showed a protease stability score of 1.89.
With “SEDVERVRHSIIVWLHILLTGDEETISKYADPNARYVQGDKHHHGMEYIAIKIRELRWSVTMEIEHMHVVDGRAHIEGRLILRIHINGKEDVEDHELELHMIKVDGKWILHEIKIK” the protease stability score was 1.59.
“DESHELWRRNLELILQSRHTGDEFLTKELFDPRMRSNVNGVELHGMEEMLKFVSEIRIHVEHFRLHRIETQGDKIHIRAHEVINIEIGDYHVRLDTWVEMHDVKYNGRWFNTEVHIR” showed a protease stability score of 0.979.
In the case of “DEEEKIIEHVLRLLAEALSTGDEDTLDKLVDPNARVMIDGVDIHGMESMTEWLKHLRIERVHVELRDYREFNGKIHVDGVLHVDRRIGDKREHVSSKTTFIFTKVDGRWKVESIKIK”, the protease stability score is reported as 2.42.
“DEKKEDIDRMVKEIHTIFATGDEDRFKELLDPNVRVDVDGKKRHGREDATEHFRKWVLTLGIDHSRVHSVHTIDGVVFLEIRFDVNGQTIKVRVLAVKVDGQWLIEEVEIRWK” showed a protease stability score of 2.38.
“DEDERVLEEALRLWLHWVATGNETKLMEMLDPNVRLDIGDKHTHGREKFHEFMKHHKELWGVTRFHLELKRYSIQGDKVEIDIEVDINGRHFDVHIRILKIDGKWRLEQVRIN” showed a protease stability score of 1.51.
“DEWEEFVKRFLEAHVKANRTGDERLLQELIDPHVRIEFNGVELHGREIFTETISQLRIKDVNLRRYHMYDGQVEIHGELHGVFNGQEKDTKIHVREIKVDGRWKMKEYSIH” showed a protease stability score of 0.994.
Work on “SEIEEHIKHMAHEILHNMLTGDWRRFSELADPNVRITVQQGDKVREYHGWESWKLLLDELRLHRFEFKDMHVQGNYAHIIGRQVGEFDGVRQDRDIEIIHVVVNGRIKQVIVHVE” yielded a protease stability score of 1.86.
Sequence “SEEDEETRKFLDLLFETRHTGDEEMSRQLADPNYQEEFENHTFHGREDFSRFIKELRIHEIRITHIYAQGDKLHIDGELRGEFNGQEVRFRVELHVVKIDGRWVLKSMRVV” has a protease stability score of 1.44.
For “TEEQEIIQKFLDEMMEYLETGDEHSLRRLADPHARWDVNGREYHGRELFITFFSELTHKLGWTIQKIEIESKRRVGEYVSFRMTIHSEVDGRHKVIIYNFFVFKVNGKWFLKSFKEE”, the protease stability score was 1.47.
In the case of “DEEEELLRRMLHLLYHFLKTGDEDTLSRLMDPNYLLIIGDKEHHGREEYRKVMKRADVLEIMHIHDVHFQGDKIHIDGHSRWRVGDKMHETRIEIIAVKFNGRWHFHSIIVR”, the protease stability score is reported as 0.804.
Sequence “DHDEKVSKEVLHEFLHVLRTGNWDHLIKNIDPNARLEVDGVDIHGRENVHKFLDEFHKRMGVDHHELHDEKMTIIDGVLQIDLDTTTEFNGRRFKTTIHLFVLKINGRWTFKTLIIKHE” has a protease stability score of 2.03.
“SEMEHNLLEFIEHLLRNWRTGDEDREHELADPHYRIDVNGVELHGMEYLLEMFRRLGIDHMEFELKRSTVVGDFAIVDGNLQFHVDGKWERRKVKMVNKKVDGRWHHTQFSVN” gave a protease stability score of 1.5.
For “KEEEEDLKKATEDMMHLLSTGDWDTIYRLADPNTRIEINGREEVGMDLYVDKSMEEFRRLGIDKIHIHLHSVTNVNGKIYIDTRYEFNGVKIRMHIVIEKINGRWLLRTLSVK”, the protease stability score was 1.52.
